Laboratory results as given in patent US20210363257A1 (Pieris, published 2021).

Experiments:
[1] = molecular target: T1, huCD137-His (human CD137 with a C-terminal polyhistidine tag) (human, UniProt Q07011 24-186); assay: dual-binding ELISA, huCD137-His coated, binder titrated, detection with biotinylated huPD-L1-His
T1 construct: Bought; also called huCD137-His-Bio

[2] = molecular target: human CD137 expressed on cells (human, UniProt Q07011 24-255); assay: cell-based or functional assay
[3] = molecular target: human PD-L1 expressed on cells (human, UniProt Q9NZQ7 19-290); assay: cell-based or functional assay
Chain of human PD-L1 expressed on cells (Q9NZQ7 19-290): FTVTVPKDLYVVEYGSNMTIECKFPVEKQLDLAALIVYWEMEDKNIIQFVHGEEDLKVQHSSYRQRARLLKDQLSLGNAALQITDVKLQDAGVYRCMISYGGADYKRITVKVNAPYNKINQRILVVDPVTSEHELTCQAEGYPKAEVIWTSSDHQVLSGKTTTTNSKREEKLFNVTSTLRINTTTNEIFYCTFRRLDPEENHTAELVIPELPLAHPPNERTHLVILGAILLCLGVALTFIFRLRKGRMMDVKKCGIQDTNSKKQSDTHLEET

[4] = molecular target: T2, cynomolgus CD137 expressed on cells (cynomolgus, UniProt A9YYE7 24-254); assay: flow cytometry, Flp-In-CHO::cynoCD137 cells
T2 construct: also called Flp-In-CHO::cynoCD137
T2 sequence (A9YYE7 entry or part of it limits assumed): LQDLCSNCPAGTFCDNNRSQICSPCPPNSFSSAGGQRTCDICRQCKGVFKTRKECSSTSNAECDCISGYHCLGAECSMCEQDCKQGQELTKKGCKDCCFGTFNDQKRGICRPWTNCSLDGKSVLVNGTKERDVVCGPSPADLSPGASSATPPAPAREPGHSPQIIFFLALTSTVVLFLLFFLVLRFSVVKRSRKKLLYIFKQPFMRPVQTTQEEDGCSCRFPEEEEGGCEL
Method: (§1) The geometric means of the fluorescence intensity were used to calculate EC₅₀ values using nonlinear regression (shared bottom, SLOPE=1).
(§2) 5×10⁴ cells per well were incubated for 1 h in ice-cold PBS containing 5% fetal calf serum (PBS-FCS). A dilution series of the fusion proteins and control antibodies were added to the cells and incubated for 1 h on ice. Cells were washed twice with PBS and then incubated with a goat anti-hIgG Alexa647-labeled antibody for 30 min on ice. Cells were subsequently washed and analyzed using iQue Flow cytometer (Intellicyte Screener). Mean geometric fluorescent signals were plotted and fitted with Graphpad software using nonlinear regression (shared bottom, SLOPE=1).

[5] = molecular target: T3, huPD-L1-His (human PD-L1 with a C-terminal polyhistidine tag) (human, UniProt Q9NZQ7 19-239); assay: dual-binding ELISA, huPD-L1-His coated, binder titrated, detection with biotinylated huCD137-His; PD-L1 capture, CD137 detection (simultaneous binding of both targets)
T3 construct: Bought; also called biotinylated huPD-L1-His
T3 sequence (Q9NZQ7 19-239 limits assumed): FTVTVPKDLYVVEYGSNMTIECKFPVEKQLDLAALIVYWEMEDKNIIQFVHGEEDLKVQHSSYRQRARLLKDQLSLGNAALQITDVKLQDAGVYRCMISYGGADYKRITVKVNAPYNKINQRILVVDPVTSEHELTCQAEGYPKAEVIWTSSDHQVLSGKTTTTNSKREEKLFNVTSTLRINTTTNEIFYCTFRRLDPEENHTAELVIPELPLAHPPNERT
Method: (§3) Recombinant huPD-L1-His (R&D Systems) in PBS (1 μg/mL) was coated overnight on microtiter plates at 4° C. The plates were washed five times after each incubation step with 100 μL PBS-0.05% T. The plates were blocked with 2% BSA (w/v) in PBS-0.1% T for 1 h at room temperature and subsequently washed again. Different concentrations of tested fusion proteins were added to the wells and incubated for 1 h at room temperature, followed by a wash step. […] After washing, a 1:5000 dilution of ExtrAvidin-HRP (Sigma-Aldrich) in PBS-0.1% T-2% BSA was added to the wells and incubated for 1 h. After an additional wash step, fluorogenic HRP substrate (QuantaBlu, Thermo) was added to each well, and the fluorescence intensity was detected using a fluorescence microplate reader.

[6] = molecular target: T1, huCD137-His (human CD137 with a …); assay: ELISA, huCD137-His coated, detection anti-NGAL-HRP
Method: (§4) Recombinant huPD-L1-His or cyPD-L1-His (human or cynomolgus PD-L1 with a C-terminal polyhistidine tag, R&D Systems or Sino Biologics) at the concentration of 1 μg/mL in PBS was coated overnight on microtiter plates at 4° C. After washing with PBS-0.05% T (PBS supplemented with 0.05% (v/v) Tween 20), the plates were blocked with 2% BSA (w/v) in PBS-0.1% T (PBS supplemented with 0.1% (v/v) Tween 20) for 1 h at room temperature. […] Bound molecules under study were detected by incubation with 1:5000 diluted anti-human IgG Fc-HRP (Jackson Laboratory) in PBS-0.1% T-2% BSA. After an additional wash step, fluorogenic HRP substrate (QuantaBlu, Thermo) was added to each well and the fluorescence intensity was detected using a fluorescence microplate reader.
The same ELISA setup was also employed to determine the binding potency of fusion proteins to CD137, where huCD137-His (human CD137 with C-terminal polyhistidine tag, R&D Systems) or cyCD137-Fc (cynomolgus CD137 C-terminally fused to Fc) was instead coated on a microtiter plate. The testing agents were similarly titrated and bound agents were detected via anti-NGAL-HRP.

[7] = molecular target: T4, cynomolgus PD-L1 expressed on cells (cynomolgus); assay: flow cytometry, Flp-In-CHO::cynoPDL-1 cells
T4 construct: whole, on cells; also called Flp-In-CHO::cynoPDL-1
Method: as §1, §2

[8] = molecular target: T1, huCD137-His (human CD137 with a …); assay: SPR (Biacore), binder captured by anti-human IgG Fc, huCD137-His in solution, 25 C, 1:1 model
Method: The binding kinetics and affinity of exemplary fusion proteins to huPD-L1-His or huCD137-His (human PD-L1 or human CD137 with a C-terminal polyhistidine tag, R&D Systems) were determined by surface plasmon resonance (SPR) using a Biacore 8K or a Biacore T200 (GE Healthcare).
The anti-human IgG Fc antibody (GE Healthcare) was immobilized on a CM5 sensor chip using standard amine chemistry: the carboxyl groups on the chip were activated using 1-ethyl-3-(3-dimethylaminopropyl)-carbodiimide (EDC) and N-hydroxysuccinimide (NHS). Subsequently, anti-human IgG Fc antibody solution (GE Healthcare) at a concentration of 25 μg/mL in 10 mM sodium acetate (pH 5.0) was applied at a flow rate of 5 μL/min until an immobilization level of 6000-10000 resonance units (RU) was achieved. Residual non-reacted NHS-esters were blocked by passing a solution of 1M ethanolamine across the surface. The reference channel was treated in an analogous manner. […] After each capture step, the needle was washed.
Double referencing was used and the 1:1 binding model was used to fit the raw data.

[9] = molecular target: T5, cyPD-L1-His (cynomolgus PD-L1 with a C-terminal polyhistidine tag) (cynomolgus); assay: ELISA, cyPD-L1-His coated, detection anti-human IgG Fc-HRP
T5 construct: Bought
Method: as §4

[10] = molecular target: T3, huPD-L1-His (human PD-L1 with a …); assay: ELISA, huPD-L1-His coated, detection anti-human IgG Fc-HRP
Method: as §4

[11] = molecular target: T3, huPD-L1-His (human PD-L1 with a …); assay: dual-binding ELISA, huPD-L1-His coated, binder titrated, detection with biotinylated huCD137-His
Method: as §3

T1 sequence (Q07011 24-186 limits assumed): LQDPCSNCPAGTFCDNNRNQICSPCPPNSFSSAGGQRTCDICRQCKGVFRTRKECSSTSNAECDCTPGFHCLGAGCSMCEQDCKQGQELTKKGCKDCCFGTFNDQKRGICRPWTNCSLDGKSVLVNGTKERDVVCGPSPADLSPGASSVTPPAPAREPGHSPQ
Chain of human CD137 expressed on cells (Q07011 24-255): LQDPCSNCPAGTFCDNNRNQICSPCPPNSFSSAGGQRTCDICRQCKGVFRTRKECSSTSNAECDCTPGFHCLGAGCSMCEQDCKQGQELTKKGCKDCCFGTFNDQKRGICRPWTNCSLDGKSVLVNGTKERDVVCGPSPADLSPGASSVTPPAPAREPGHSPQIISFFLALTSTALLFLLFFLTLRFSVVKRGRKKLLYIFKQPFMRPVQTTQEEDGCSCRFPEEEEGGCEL

Row | Binder | EC50 [1] | EC50 [nM] With RKO cells (CD137 Bioassay, NFκB-luc2/CD137 Jurkat luminescence) [2] | EC50 [nM] (PD-1/PD-L1 blockade bioassay, NFAT-RE-mediated luminescence) [3] | EC50 [4] | EC50 [5] | EC50 [6] | EC50 [7] | Kd [8] | koff [8] | kon [8] | EC50 [9] | EC50 [10] | EC50 [11]
1 | fusion protein SEQ ID NOs: 90 and 87 (bispecific antibody, human IgG4 S228P, kappa, F234A L235A, Bivalent to CD137) heavy: not shown light: EIVLTQSPDTLSVTPKEKVTLTCRASQSIGTNIHWFQQKPGQSPKLLIKYASESISGVPSRFSGSGSGTDFTLTINSVEAEDAATYYCQQSNSWPYTFGQGTKLEIKRTVAAPSVFIFPPSDEQLKSGTASVVCLLNNFYPREAKVQWKVDNALQSGNSQESVTEQDSKDSTYSLSSTLTLSKADYEKHKVYACEVTHQGLSSPVTKSFNRGEC | 2.9 nM | 0.0809 nM | 0.49 nM | 51.4 nM | 0.58 nM | 0.28 nM | 4.48 nM | 6.48 nM | 0.000255 s⁻¹ | 39300 M⁻¹ s⁻¹ | 0.13 nM | 0.15 nM | –
2 | fusion protein SEQ ID NOs: 86 and 91 (bispecific antibody, human IgG4 S228P, kappa, F234A L235A, Antibody-lipocalin mutein fusion, IgG4 S228P backbone; Bivalent to CD137) heavy: not shown light: EIVLTQSPDTLSVTPKEKVTLTCRASQSIGTNIHWFQQKPGQSPKLLIKYASESISGVPSRFSGSGSGTDFTLTINSVEAEDAATYYCQQSNSWPYTFGQGTKLEIKRTVAAPSVFIFPPSDEQLKSGTASVVCLLNNFYPREAKVQWKVDNALQSGNSQESVTEQDSKDSTYSLSSTLTLSKADYEKHKVYACEVTHQGLSSPVTKSFNRGECGGGGSGGGGSGGGGSQDSTSDLIPAPPLSKVPLQQNFQDNQFHGKWYVVGQAGNIRLREDKDPIKMMATIYELKEDKSYDVTMVKFDDKKCMYDIWTFVPGSQPGEFTLGKIKSFPGHTSSLVRVVSTNYNQHAMVFFKFVFQNREEFYITLYGRTKELTSELKENFIRFSKSLGLPENHIVFPVPIDQCIDG | 3.3 nM | 0.0889 nM | – | 39.1 nM | – | 0.57 nM | 1.41 nM | 5.11 nM | 0.000175 s⁻¹ | 34200 M⁻¹ s⁻¹ | 0.18 nM | 0.23 nM | 0.59 nM
